Laboratory results as given in US20110091450.

Biological target: mouse MBL (mannose-binding lectin of mouse serum, bound to mannan)

B1: recombinant mouse MASP-2 (rMASP-2) (protein)
chain: TLLGSKWPEPVFGRLVSPGFPEKYADHQDRSWTLTAPPGYRLRLYFTHFDLELSYRCEYDFVKLSSGTKVLATLCGQESTDTEQAPGNDTFYSLGPSLKVTFHSDYSNEKPFTGFEAFYAAEDVDECRVSLGDSVPCDHYCHNYLGGYYCSCRAGYILHQNKHTCSALCSGQVFTGRSGYLSSPEYPQPYPKLSSCTYSIRLEDGFSVILDFVESFDVETHPEAQCPYDSLKIQTDKGEHGPFCGKTLPPRIETDSHKVTITFATDESGNHTGWKIHYTSTARPCPDPTAPPNGSISPVQATYVLKDRFSVFCKTGFELLQGSVPLKSFTAVCQKDGSWDRPMPECSIIDCGPPDDLPNGHVDYITGPQVTTYKAVIQYSCEETFYTMSSNGKYVCEADGFWTSSKGEKLPPVCEPVCGLSTHTIGGRIVGGQPAKPGDFPWQVLLLGQTTAAAGALIHDNWVLTAAHAVYEKRMAASSLNIRMGILKRLSPHYTQAWPEEIFIHEGYTHGAGFDNDIALIKLKNKVTINGSIMPVCLPRKEAASLMRTDFTGTVAGWGLTQKGLLARNLMFVDIPIADHQKCTTVYEKLYPGVRVSANMLCAGLETGGKDSCRGDSGGALVFLDNETQRWFVGGIVSWGSINCGAAGQYGVYTKVINYIPWNENIISNF
C4 deposition on mannan-coated wells (sMAP-/- mouse serum): the amount of C4 was restored by up to 46% of that of wild-type serum in a dose-dependent manner and reached a plateau (FIG. 25B)
